Source: PMC10786891, “Massively parallel profiling of RNA-targeting CRISPR-Cas13d”

T1: EsCas13d, nuclease-dead (Eubacterium siraeum, UniProt B0MS50, R295A;H300A;R849A;H854A)
T1 sequence: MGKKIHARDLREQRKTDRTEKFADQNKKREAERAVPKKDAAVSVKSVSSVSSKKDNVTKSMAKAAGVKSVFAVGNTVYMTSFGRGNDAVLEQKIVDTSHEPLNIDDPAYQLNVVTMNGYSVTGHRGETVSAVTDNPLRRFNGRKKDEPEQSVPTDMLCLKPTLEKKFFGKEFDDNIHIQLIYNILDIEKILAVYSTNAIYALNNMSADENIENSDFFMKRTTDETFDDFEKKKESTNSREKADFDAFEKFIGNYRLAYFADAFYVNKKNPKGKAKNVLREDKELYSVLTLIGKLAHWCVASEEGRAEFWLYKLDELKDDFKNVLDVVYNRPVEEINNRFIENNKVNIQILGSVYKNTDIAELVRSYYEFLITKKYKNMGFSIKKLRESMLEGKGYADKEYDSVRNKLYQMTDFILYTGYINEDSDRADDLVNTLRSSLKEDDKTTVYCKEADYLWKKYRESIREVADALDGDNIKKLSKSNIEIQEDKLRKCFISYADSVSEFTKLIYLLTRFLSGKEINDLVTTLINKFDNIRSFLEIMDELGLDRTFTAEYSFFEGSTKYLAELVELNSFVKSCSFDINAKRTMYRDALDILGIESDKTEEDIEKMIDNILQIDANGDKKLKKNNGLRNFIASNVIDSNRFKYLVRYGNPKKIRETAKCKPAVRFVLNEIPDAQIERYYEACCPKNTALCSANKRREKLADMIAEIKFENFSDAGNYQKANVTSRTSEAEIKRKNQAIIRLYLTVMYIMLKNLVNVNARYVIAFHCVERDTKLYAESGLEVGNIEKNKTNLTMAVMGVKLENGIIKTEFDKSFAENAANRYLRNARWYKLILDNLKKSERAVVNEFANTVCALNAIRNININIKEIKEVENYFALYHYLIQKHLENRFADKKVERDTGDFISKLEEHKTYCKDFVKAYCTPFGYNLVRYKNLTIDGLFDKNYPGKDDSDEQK


Target: T1, EsCas13d, nuclease-dead
Experiment: crRNA (strand 1, pre-loaded); Mg2+; 40 mM Tris-HCl pH 7.5, 150 mM NaCl, 6 mM MgCl2, 1 mM DTT, 0.1% Tween-20, 0.2 mg/ml BSA; 25 C; 10 min per concentration, then washed
Settings: tags: His6-TwinStrep-SUMO cleaved; N-terminal SNAP kept (SNAP-Surface 488); label: 3' end held by stalled T7 RNA polymerase

| Binder | Kd |
| --- | --- |
| target 3 complement block 3-7 (mixed) RNA 1: CACCCGUGCAAAAUUGCAGGGGUCUAAAACGACCUGAAUAUUUCAGAUCAAA RNA 2: GGGAAUGGAUCCACAUCUACGAAUUCGUUUUUGAUCUGAAAUAUAGUCCUCUGCAGAUCGGAAGAGCACACGU | 74 ± 11 nM |
| target 3 insA 3' of 22,insC 3' of 4 (mixed) RNA 1: CACCCGUGCAAAAUUGCAGGGGUCUAAAACGACCUGAAUAUUUCAGAUCAAA RNA 2: GGGAAUGGAUCCACAUCUACGAAUUCGUUUAUUGAUCUGAAAUAUUCAGCGUCUGCAGAUCGGAAGAGCACACGU | 19.4 ± 4.55 nM |
| target 3 insA 3' of 6,insU 3' of 6 (mixed) RNA 1: CACCCGUGCAAAAUUGCAGGGGUCUAAAACGACCUGAAUAUUUCAGAUCAAA RNA 2: GGGAAUGGAUCCACAUCUACGAAUUCGUUUUUGAUCUGAAAUAUUCAUAGGUCUGCAGAUCGGAAGAGCACACGU | 5.3 ± 0.39 nM |
| target 3 C6U,U7C (mixed) RNA 1: CACCCGUGCAAAAUUGCAGGGGUCUAAAACGACCUGAAUAUUUCAGAUCAAA RNA 2: GGGAAUGGAUCCACAUCUACGAAUUCGUUUUUGAUCUGAAAUAUCUAGGUCUGCAGAUCGGAAGAGCACACGU | 65.5 ± 15.5 nM |
| target 3 insA 3' of 8,insA 3' of 7 (mixed) RNA 1: CACCCGUGCAAAAUUGCAGGGGUCUAAAACGACCUGAAUAUUUCAGAUCAAA RNA 2: GGGAAUGGAUCCACAUCUACGAAUUCGUUUUUGAUCUGAAAUAUAUACAGGUCUGCAGAUCGGAAGAGCACACGU | 44.5 ± 5.5 nM |
| target 3 C6U,U22G (mixed) RNA 1: CACCCGUGCAAAAUUGCAGGGGUCUAAAACGACCUGAAUAUUUCAGAUCAAA RNA 2: GGGAAUGGAUCCACAUCUACGAAUUCGUUGUUGAUCUGAAAUAUUUAGGUCUGCAGAUCGGAAGAGCACACGU | 51.5 ± 6 nM |
| target 3 insU 3' of 16,insA 3' of 4 (mixed) RNA 1: CACCCGUGCAAAAUUGCAGGGGUCUAAAACGACCUGAAUAUUUCAGAUCAAA RNA 2: GGGAAUGGAUCCACAUCUACGAAUUCGUUUUUGAUCUUGAAAUAUUCAGAGUCUGCAGAUCGGAAGAGCACACGU | 90 ± 44.5 nM |
| target 3 G3C,U21G (mixed) RNA 1: CACCCGUGCAAAAUUGCAGGGGUCUAAAACGACCUGAAUAUUUCAGAUCAAA RNA 2: GGGAAUGGAUCCACAUCUACGAAUUCGUUUGUGAUCUGAAAUAUUCAGCUCUGCAGAUCGGAAGAGCACACGU | 70.5 ± 24 nM |
| target 3 C1G,U2G (mixed) RNA 1: CACCCGUGCAAAAUUGCAGGGGUCUAAAACGACCUGAAUAUUUCAGAUCAAA RNA 2: GGGAAUGGAUCCACAUCUACGAAUUCGUUUUUGAUCUGAAAUAUUCAGGGGUGCAGAUCGGAAGAGCACACGU | 12.8 ± 1.6 nM |
| target 3 del14,del17 (mixed) RNA 1: CACCCGUGCAAAAUUGCAGGGGUCUAAAACGACCUGAAUAUUUCAGAUCAAA RNA 2: GGGAAUGGAUCCACAUCUACGAAUUCGUUUUUGACUAAAUAUUCAGGUCUGCAGAUCGGAAGAGCACACGU | 41 ± 7 nM |
| target 3 A5G,U7C (mixed) RNA 1: CACCCGUGCAAAAUUGCAGGGGUCUAAAACGACCUGAAUAUUUCAGAUCAAA RNA 2: GGGAAUGGAUCCACAUCUACGAAUUCGUUUUUGAUCUGAAAUAUCCGGGUCUGCAGAUCGGAAGAGCACACGU | 66.5 ± 11 nM |
| target 1 C2G,U8C (mixed) RNA 1: CACCCGUGCAAAAAUGCAGGGGUCUAAAACUGAGCGGAUAACCUCUCUAUGG RNA 2: GGGAAUGGAUCCACAUCUACGAAUUCGUACCAUAGAGAGGUUACCCGCUGACCGAGAUCGGAAGAGCACACGU | 7.9 ± 0.4 nM |
| target 1 G15U,A16U (mixed) RNA 1: CACCCGUGCAAAAAUGCAGGGGUCUAAAACUGAGCGGAUAACCUCUCUAUGG RNA 2: GGGAAUGGAUCCACAUCUACGAAUUCGUACCAUAGUUAGGUUAUCCGCUCACCGAGAUCGGAAGAGCACACGU | 15.6 ± 0.7 nM |
